# B1: SARS-CoV-1 RBD-Fc (Fc fusion)
# chain: not shown
# Biological target: Nb4 × 3 (trimeric Nb4, three VHH domains in tandem) (dromedary)
# Assay: ELISA
binder,measurement,value
B1,binding result,binds

# Reference: PMC12064060 (mAbs, 2025)
